# In US20050267025A1, “Compositions and methods for treatment of infectious and inflammatory diseases” (priority 2002, published 2005):
# Test system: human monocytes
# Format: cell-based
molecule,measurement,value
"Rv0577: ~32 kDa IL-10 producing protein encoded by Rv0577 (cfp32), SEQ ID NO: 2 (protein, listed as Mycobacterium tuberculosis) MPKRSEYRQGTPNWVDLQTTDQSAAKKFYTSLFGWGYDDNPVPGGGGVYSMATLNGEAVAAIAPMPPGAPEGMPPIWNTYIAVDDVDAVVDKVVPGGGQVMMPAFDIGDAGRMSFITDPTGAAVGLWQANRHIGATLVNETGTLIWNELLTDKPDLALAFYEAVVGLTHSSMEIAAGQNYRVLKAGDAEVGGCMEPPMPGVPNHWHVYFAVDDADATAAKAAAAGGQVIAEPADIPSVGRFAVLSDPQGAIFSVLKPAPQQ",IL-10 inducing activity of Mtb attributed to Rv0577,~60%
